Assay results from US20080032931A1.

Molecular target: HV62, synthetic peptide corresponding to residues 33 to 94 of human VAMP-2 (human) (UniProt P63027)

Question: With “enterokinase-nicked recombinant single-chain TeNT, wild type L chain (enzyme)” as the substance, how does the Initial rate of cleavage of HV62 (nmol · min^-1mg^-1) read?
Answer: The Initial rate of cleavage of HV62 (nmol · min^-1mg^-1) was 22.7.
